Reference: PMC11952670

Columns and labels:
[1] = biological target: C-terminal domain of F-BclA (F-BclA-CTD) (Bacillus thuringiensis subsp. kurstaki); assay: crystal structure; F-BclA-CTD; 1M LiCl, 0.1M citrate pH 4.0, 20% (w/v) PEG 6000; P321
[2] = biological target: ExsF, first 23 residues replaced by a 6xHis tag (B. paranthracis); assay: crystal structure; co-crystallisation of 6xHis-ExsF with the synthetic F-Anchor peptide; 5% v/v T-mate pH 7, 0.1 M sodium cacodylate pH 5.3, 15% v/v PEG smear broad, 10% v/v ethylene glycol; 1.92 Å, P21

C-terminal domain of F-BclA (F-BclA-CTD) (domain or fragment)
stoichiometry N [1]: 3

ExsF, first 23 residues replaced by a 6xHis tag (domain or fragment)
stoichiometry N [2]: 3
